Data: patent publication US20250018014A1, “METHOD FOR TREATING AND/OR PREVENTING REGNASE-1-RELATED DISEASE” (OSAKA UNIVERSITY, priority 2018, published 2025)
Positions of bridges follow the written chain, without caps; N, C: chain ends. Non-standard residues stand in square brackets, D forms with d. *: point of attachment. Pyrrolidide = C1CCN(*)C1; dNMeA = CN[C@H](C)C(=O)O

T1: full-length human Regnase-1 with a FLAG tag on the N-terminal side and a biotin ligase BirA recognition … (human, UniProt Q5D1E8 1-599, biotinylated at the BirA recognition sequence when required)
T1 sequence: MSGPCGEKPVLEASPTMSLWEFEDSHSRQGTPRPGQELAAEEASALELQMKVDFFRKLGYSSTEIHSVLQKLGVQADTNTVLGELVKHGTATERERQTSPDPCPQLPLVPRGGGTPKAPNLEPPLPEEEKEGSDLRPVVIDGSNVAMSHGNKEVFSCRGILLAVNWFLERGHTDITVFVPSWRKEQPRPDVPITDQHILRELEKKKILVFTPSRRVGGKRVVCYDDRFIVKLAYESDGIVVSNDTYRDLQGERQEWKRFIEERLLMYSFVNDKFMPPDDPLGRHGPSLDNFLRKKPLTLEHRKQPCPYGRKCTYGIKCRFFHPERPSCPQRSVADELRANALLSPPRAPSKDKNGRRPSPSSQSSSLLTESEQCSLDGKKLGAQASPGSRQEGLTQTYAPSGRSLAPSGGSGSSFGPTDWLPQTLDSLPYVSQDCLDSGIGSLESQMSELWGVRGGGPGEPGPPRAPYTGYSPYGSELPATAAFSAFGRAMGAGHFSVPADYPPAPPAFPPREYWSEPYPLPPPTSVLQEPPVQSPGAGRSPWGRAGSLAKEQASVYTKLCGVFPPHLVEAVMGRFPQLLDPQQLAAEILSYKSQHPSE

T2: C-terminal human Regnase-1 (amino acids 301 to 599) with N-terminal FLAG tag and C-terminal BirA recognition … (human, UniProt Q5D1E8 301-599)
T2 sequence: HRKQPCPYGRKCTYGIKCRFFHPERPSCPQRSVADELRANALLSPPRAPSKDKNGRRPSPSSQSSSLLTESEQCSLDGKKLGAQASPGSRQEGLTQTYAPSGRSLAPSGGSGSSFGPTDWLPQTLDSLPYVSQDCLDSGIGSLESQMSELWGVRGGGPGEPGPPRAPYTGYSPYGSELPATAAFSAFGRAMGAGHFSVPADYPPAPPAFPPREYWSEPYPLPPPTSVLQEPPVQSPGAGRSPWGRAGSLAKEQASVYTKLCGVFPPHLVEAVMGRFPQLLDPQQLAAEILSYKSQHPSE

T3: C-terminal domain-deleted human Regnase-1 (amino acids 1 to 546) with N-terminal FLAG tag and C-terminal BirA … (human, UniProt Q5D1E8 1-546)
T3 sequence: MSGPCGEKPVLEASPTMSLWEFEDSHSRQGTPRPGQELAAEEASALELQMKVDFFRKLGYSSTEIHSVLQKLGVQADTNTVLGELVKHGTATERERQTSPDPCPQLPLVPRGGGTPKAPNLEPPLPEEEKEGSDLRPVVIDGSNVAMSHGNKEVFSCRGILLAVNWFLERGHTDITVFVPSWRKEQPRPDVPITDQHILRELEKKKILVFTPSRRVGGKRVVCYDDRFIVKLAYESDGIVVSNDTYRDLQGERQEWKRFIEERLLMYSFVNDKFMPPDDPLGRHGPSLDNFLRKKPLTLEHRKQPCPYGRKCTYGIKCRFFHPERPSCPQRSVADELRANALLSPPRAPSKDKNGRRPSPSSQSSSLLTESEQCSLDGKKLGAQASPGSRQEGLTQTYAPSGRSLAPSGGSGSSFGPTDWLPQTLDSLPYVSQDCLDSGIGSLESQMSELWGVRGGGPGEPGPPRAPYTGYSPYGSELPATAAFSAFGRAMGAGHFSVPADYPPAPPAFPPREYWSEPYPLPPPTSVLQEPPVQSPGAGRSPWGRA

B1: PP7 (peptide)
peptide: XNFNSAYYRAIWD
HELM: PEPTIDE1{[meA].N.F.N.S.A.Y.Y.R.A.I.W.D.[C1CCN([*:1])C1]}$PEPTIDE1,PEPTIDE1,1:R1-13:R3$$$V2.0
SMILES: CC[C@H](C)[C@@H]1NC(=O)[C@H](C)NC(=O)[C@H](CCCNC(=N)N)NC(=O)[C@H](Cc2ccc(O)cc2)NC(=O)[C@H](Cc2ccc(O)cc2)NC(=O)[C@H](C)NC(=O)[C@H](CO)NC(=O)[C@H](CC(N)=O)NC(=O)[C@H](Cc2ccccc2)NC(=O)[C@H](CC(N)=O)NC(=O)[C@H](C)N(C)C(=O)C[C@@H](C(=O)N2CCCC2)NC(=O)[C@H](Cc2c[nH]c3ccccc23)NC1=O
B2: PP8 (peptide)
peptide: XSKYWNSWYNIWD
HELM: PEPTIDE1{[C[C@H](C(=O)[*:2])N(C)[*:1]].S.K.Y.W.N.S.W.Y.N.I.W.D.[C1CCN([*:1])C1]}$PEPTIDE1,PEPTIDE1,1:R1-13:R3$$$V2.0
SMILES: CC[C@H](C)[C@@H]1NC(=O)[C@H](CC(N)=O)NC(=O)[C@H](Cc2ccc(O)cc2)NC(=O)[C@H](Cc2c[nH]c3ccccc23)NC(=O)[C@H](CO)NC(=O)[C@H](CC(N)=O)NC(=O)[C@H](Cc2c[nH]c3ccccc23)NC(=O)[C@H](Cc2ccc(O)cc2)NC(=O)[C@H](CCCCN)NC(=O)[C@H](CO)NC(=O)[C@@H](C)N(C)C(=O)C[C@@H](C(=O)N2CCCC2)NC(=O)[C@H](Cc2c[nH]c3ccccc23)NC1=O
B3: PP10 (peptide)
peptide: XNYQSWYYRSIWD
HELM: PEPTIDE1{[meA].N.Y.Q.S.W.Y.Y.R.S.I.W.D.[C1CCN([*:1])C1]}$PEPTIDE1,PEPTIDE1,1:R1-13:R3$$$V2.0
SMILES: CC[C@H](C)[C@@H]1NC(=O)[C@H](CO)NC(=O)[C@H](CCCNC(=N)N)NC(=O)[C@H](Cc2ccc(O)cc2)NC(=O)[C@H](Cc2ccc(O)cc2)NC(=O)[C@H](Cc2c[nH]c3ccccc23)NC(=O)[C@H](CO)NC(=O)[C@H](CCC(N)=O)NC(=O)[C@H](Cc2ccc(O)cc2)NC(=O)[C@H](CC(N)=O)NC(=O)[C@H](C)N(C)C(=O)C[C@@H](C(=O)N2CCCC2)NC(=O)[C@H](Cc2c[nH]c3ccccc23)NC1=O
B4: PP11 (peptide)
peptide: XKFAQFRWIYPD
HELM: PEPTIDE1{[meA].K.F.A.Q.F.R.W.I.Y.P.D.[C1CCN([*:1])C1]}$PEPTIDE1,PEPTIDE1,1:R1-12:R3$$$V2.0
SMILES: CC[C@H](C)[C@@H]1NC(=O)[C@H](Cc2c[nH]c3ccccc23)NC(=O)[C@H](CCCNC(=N)N)NC(=O)[C@H](Cc2ccccc2)NC(=O)[C@H](CCC(N)=O)NC(=O)[C@H](C)NC(=O)[C@H](Cc2ccccc2)NC(=O)[C@H](CCCCN)NC(=O)[C@H](C)N(C)C(=O)C[C@@H](C(=O)N2CCCC2)NC(=O)[C@@H]2CCCN2C(=O)[C@H](Cc2ccc(O)cc2)NC1=O
B5: PP12 (peptide)
peptide: XRYAVYQWIYPD
HELM: PEPTIDE1{[meA].R.Y.A.V.Y.Q.W.I.Y.P.D.[C1CCN([*:1])C1]}$PEPTIDE1,PEPTIDE1,1:R1-12:R3$$$V2.0
SMILES: CC[C@H](C)[C@@H]1NC(=O)[C@H](Cc2c[nH]c3ccccc23)NC(=O)[C@H](CCC(N)=O)NC(=O)[C@H](Cc2ccc(O)cc2)NC(=O)[C@H](C(C)C)NC(=O)[C@H](C)NC(=O)[C@H](Cc2ccc(O)cc2)NC(=O)[C@H](CCCNC(=N)N)NC(=O)[C@H](C)N(C)C(=O)C[C@@H](C(=O)N2CCCC2)NC(=O)[C@@H]2CCCN2C(=O)[C@H](Cc2ccc(O)cc2)NC1=O
B6: PP13 (peptide)
peptide: XRFRQWKWVYPD
HELM: PEPTIDE1{[meA].R.F.R.Q.W.K.W.V.Y.P.D.[C1CCN([*:1])C1]}$PEPTIDE1,PEPTIDE1,1:R1-12:R3$$$V2.0
SMILES: CC(C)[C@@H]1NC(=O)[C@H](Cc2c[nH]c3ccccc23)NC(=O)[C@H](CCCCN)NC(=O)[C@H](Cc2c[nH]c3ccccc23)NC(=O)[C@H](CCC(N)=O)NC(=O)[C@H](CCCNC(=N)N)NC(=O)[C@H](Cc2ccccc2)NC(=O)[C@H](CCCNC(=N)N)NC(=O)[C@H](C)N(C)C(=O)C[C@@H](C(=O)N2CCCC2)NC(=O)[C@@H]2CCCN2C(=O)[C@H](Cc2ccc(O)cc2)NC1=O

target: T1, full-length human Regnase-1 with a FLAG …; assay: cell-based or functional assay

Binder	50% inhibition concentration, Regnase-1 phosphorylation by TBK1 (AlphaScreen)
B1	2.2 µM
B2	2.9 µM
[dNMeA]TYGHSSWYKIWD-Pyrrolidide (lactam N-13) [PP9]	4.2 µM
B3	0.2 µM
B4	29.1 µM
B5	12.7 µM
B6	8.4 µM

target: T2, C-terminal human Regnase-1 (amino acids …); assay: cell-based or functional assay

Binder	50% inhibition concentration, Regnase-1 phosphorylation by TBK1 (AlphaScreen)
B1	4.6 µM
B2	6 µM
[dNMeA]TYGHSSWYKIWD-Pyrrolidide (lactam N-13) [PP9]	7.9 µM
B3	0.4 µM
B4	> 62.1 µM
B5	19.6 µM
B6	18 µM

target: T3, C-terminal domain-deleted human …; assay: cell-based or functional assay

Binder	50% inhibition concentration, Regnase-1 phosphorylation by TBK1 (AlphaScreen)
B1	4.7 µM
B2	5.5 µM
[dNMeA]TYGHSSWYKIWD-Pyrrolidide (lactam N-13) [PP9]	6.6 µM
B3	0.2 µM
B4	55.6 µM
B5	22.5 µM
B6	17.7 µM

target: T1, full-length human Regnase-1 with a FLAG …; assay: cell-based or functional assay; remark: another data set of the same source

Binder	50% inhibition concentration, Regnase-1 phosphorylation by IKKβ (AlphaScreen)
B1	0.8 µM
B2	1.4 µM
[dNMeA]TYGHSSWYKIWD-Pyrrolidide (lactam N-13) [PP9]	2.7 µM
B3	0.5 µM
B4	22.3 µM
B5	6.8 µM
B6	3.6 µM

target: T2, C-terminal human Regnase-1 (amino acids …); assay: cell-based or functional assay; remark: another data set of the same source

Binder	50% inhibition concentration, Regnase-1 phosphorylation by IKKβ (AlphaScreen)
B1	3 µM
B2	5.7 µM
[dNMeA]TYGHSSWYKIWD-Pyrrolidide (lactam N-13) [PP9]	6.2 µM
B3	1.8 µM
B4	> 62.1 µM
B5	20.7 µM
B6	23.2 µM

target: T3, C-terminal domain-deleted human …; assay: cell-based or functional assay; remark: another data set of the same source

Binder	50% inhibition concentration, Regnase-1 phosphorylation by IKKβ (AlphaScreen)
B1	4.5 µM
B2	7.8 µM
[dNMeA]TYGHSSWYKIWD-Pyrrolidide (lactam N-13) [PP9]	6.4 µM
B3	2.6 µM
B4	> 62.1 µM
B5	27 µM
B6	43.2 µM
